Test results: the supplement of paper PMC7877785
± gives the uncertainty stated by the source.

Assay: self-splicing fitness, log relative to wild type (ln ratio); higher = more splicing; Tetrahymena group I intron in knt gene, E. coli kanamycin selection, DiMSum; sequences stand for … in CUCUCU…GGAGGGAAAAGUUAUCAGGCAUGCACCUGGUAGCUAGUCUUUAAACCAAUAGAUUGCAUCGGUUUAAAAGGCAAGACCGUCAAAUUGCGGGAAAGGGGUCAACAGCCGUUCAGUACCAAGUCUCAGGGGAAACUUUGAGAUGGCCUUGCAAAGGGUAUGGUAAUAAGCUGACGGACAUGGUCCUAACCACGCAGCCAAGUCCUAAGUCAACAGAUCUUCUGUUGAUAUGGAUGCAGUUCACAGACUAAAUGUCGGUCGGGGAAGAUGUAUUCUUCUCAUAAGAUAUAGUCGGACCUCUCCUUAAUGGGAGCUAGCGGAUGAAGUGAUGCAACACUGGAGCCGCUGGGAACUAAUUUGUAUGCGAAAGUAUAUUGAUUAGUUUUGGAGUACUCGUGGUCG
Method in brief: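 Six replicate transformations of E. coli BL21(DE3) with a pET-22b(+) library were grown overnight at 37°C or 30°C. The library randomised all eight P1ex-region intron nucleotides, the intron lying in the knt kanamycin-resistance gene, and plates were LB agar with or without 25 μg/mL kanamycin plus 100 μg/mL carbenicillin, 50 μM IPTG and 0.2% rhamnose. Pooled colonies were amplicon-sequenced on an Illumina HiSeq 2500, and fitness is the DiMSum error-weighted combination of wild-type-normalised replicate fold changes, kanamycin versus none.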

| Sequence | self-splicing fitness (ln) (30 °C) | self-splicing fitness (ln) (37 °C) |
| --- | --- | --- |
| AGGGAGCAAUAUUACGAAAU | -3.18 ± 0.35 | -1.22 ± 0.24 |
| AGGGAGCAAUAUUACGACCA | -1.14 ± 0.18 | -0.171 ± 0.19 |
| AGGGAGCAAUAUUACGACUU | -1.41 ± 0.18 | 0.0129 ± 0.18 |
| AGGGAGCAAUAUUACGAGUA | -2.7 ± 0.31 | -1.76 ± 0.2 |
| AGGGAGCAAUAUUACGCAUA | -2.22 ± 0.2 | -2.63 ± 0.33 |
| AGGGAGCAAUAUUACGCUAA | – | -2.1 ± 0.49 |
| AGGGAGCAAUAUUACGCUCA | -1.16 ± 0.11 | -1.14 ± 0.13 |
| AGGGAGCAAUAUUACGCUGC | -3.96 ± 0.29 | -2.35 ± 0.23 |
| AGGGAGCAAUAUUACGGACA | -2.85 ± 0.35 | -2.56 ± 0.29 |
| AGGGAGCAAUAUUACGGAGG | – | -1.74 ± 0.43 |
| AGGGAGCAAUAUUACGGGUA | -3.37 ± 0.21 | -2.64 ± 0.17 |
| AGGGAGCAAUAUUACGGUAC | -2.99 ± 0.31 | -2.67 ± 0.3 |
| AGGGAGCAAUAUUACGGUCU | -1.67 ± 0.21 | -0.696 ± 0.21 |
| AGGGAGCAAUAUUACGUCAU | -3.06 ± 0.28 | -2.74 ± 0.31 |
| AGGGAGCAAUAUUACGUGAG | -3.15 ± 0.26 | -2.56 ± 0.24 |
| AGGGAGCAAUAUUACGUGCU | -3.8 ± 0.3 | -1.92 ± 0.25 |
| AGGGAGCAAUAUUACGUGGU | – | -3.13 ± 0.4 |
| AGGGAGCAAUAUUACGUUGA | – | -2.8 ± 0.24 |
| AGGGAGCAAUAUUACGUUGU | -3.01 ± 0.18 | -2.9 ± 0.2 |
| AGGUAGCAAUAUUACGAACC | -0.58 ± 0.025 | -0.294 ± 0.041 |
| AGGUAGCAAUAUUACGAGAG | -3.887 ± 0.03 | -2.71 ± 0.039 |
| AGGUAGCAAUAUUACGAGGU | -3.749 ± 0.029 | -2.49 ± 0.039 |
| AGGUAGCAAUAUUACGAUCC | -0.0773 ± 0.022 | 0.212 ± 0.039 |
| AGGUAGCAAUAUUACGAUCG | -0.106 ± 0.015 | 0.121 ± 0.035 |
| AGGUAGCAAUAUUACGAUGG | -3.633 ± 0.029 | -2.57 ± 0.042 |

| Sequence | self-splicing fitness (ln) (30 °C) | self-splicing fitness (ln) (37 °C) |
| --- | --- | --- |
| AGGUAGCAAUAUUACGCAAA | -2.317 ± 0.023 | -1.37 ± 0.035 |
| AGGUAGCAAUAUUACGCCGA | -0.983 ± 0.019 | -0.334 ± 0.034 |
| AGGUAGCAAUAUUACGCCUU | -4.13 ± 0.038 | -2.87 ± 0.048 |
| AGGUAGCAAUAUUACGCUAC | -3.78 ± 0.047 | -2.71 ± 0.059 |
| AGGUAGCAAUAUUACGGCGG | -1.955 ± 0.016 | -1.11 ± 0.034 |
| AGGUAGCAAUAUUACGGCUG | -1.13 ± 0.016 | -1 ± 0.037 |
| AGGUAGCAAUAUUACGGGUC | -3.64 ± 0.03 | -2.96 ± 0.046 |
| AGGUAGCAAUAUUACGGUUA | -0.977 ± 0.016 | -0.509 ± 0.033 |
| AGGUAGCAAUAUUACGGUUU | -0.613 ± 0.012 | -0.252 ± 0.033 |
| AGGUAGCAAUAUUACGUAAU | -1.908 ± 0.015 | -0.958 ± 0.034 |
| AGGUAGCAAUAUUACGUAGU | -3.123 ± 0.017 | -1.62 ± 0.033 |
| AGGUAGCAAUAUUACGUCUG | -0.641 ± 0.013 | -0.161 ± 0.033 |
| AGUAAGCAAUAUUACGAACG | -0.785 ± 0.14 | -0.209 ± 0.18 |
| AGUAAGCAAUAUUACGACAC | -1.58 ± 0.19 | -0.792 ± 0.17 |
| AGUAAGCAAUAUUACGACGU | -0.0587 ± 0.09 | -0.132 ± 0.087 |
| AGUAAGCAAUAUUACGAGUA | -2.91 ± 0.26 | -0.922 ± 0.16 |
| AGUAAGCAAUAUUACGCACC | -0.949 ± 0.24 | -0.969 ± 0.25 |
| AGUAAGCAAUAUUACGCGCA | -1.02 ± 0.16 | 0.0785 ± 0.16 |
| AGUAAGCAAUAUUACGCUAG | -2.83 ± 0.24 | -2.39 ± 0.23 |
| AGUAAGCAAUAUUACGGCGA | -0.491 ± 0.12 | 0.468 ± 0.17 |
| AGUAAGCAAUAUUACGUCAC | -3.26 ± 0.19 | -2.11 ± 0.17 |
| AGUAAGCAAUAUUACGUCCA | -0.878 ± 0.12 | -0.0078 ± 0.13 |
| AGUAAGCAAUAUUACGUGAU | -3.15 ± 0.2 | -2.33 ± 0.2 |
| AGUAAGCAAUAUUACGUGGG | -3.66 ± 0.26 | -1.89 ± 0.17 |
| AGUAAGCAAUAUUACGUUUU | -3.28 ± 0.14 | -2.19 ± 0.16 |

| Sequence | self-splicing fitness (ln) (30 °C) | self-splicing fitness (ln) (37 °C) |
| --- | --- | --- |
| AGUCAGCAAUAUUACGAAAG | -3.43 ± 0.23 | -1.45 ± 0.2 |
| AGUCAGCAAUAUUACGAAAU | -1.76 ± 0.078 | -0.398 ± 0.094 |
| AGUCAGCAAUAUUACGAACU | -0.853 ± 0.089 | 0.15 ± 0.11 |
| AGUCAGCAAUAUUACGACCG | 0.0414 ± 0.095 | 0.085 ± 0.13 |
| AGUCAGCAAUAUUACGACGA | -0.25 ± 0.07 | -0.283 ± 0.11 |
| AGUCAGCAAUAUUACGACUA | -0.831 ± 0.16 | 0.0945 ± 0.14 |
| AGUCAGCAAUAUUACGACUC | -3.14 ± 0.25 | -2.21 ± 0.24 |
| AGUCAGCAAUAUUACGACUG | -0.879 ± 0.055 | -0.421 ± 0.069 |
| AGUCAGCAAUAUUACGAGAA | – | -1.35 ± 0.36 |
| AGUCAGCAAUAUUACGAUGG | -1.55 ± 0.062 | -0.364 ± 0.083 |
| AGUCAGCAAUAUUACGCCGU | -1.26 ± 0.15 | -0.55 ± 0.21 |
| AGUCAGCAAUAUUACGCGGC | -3.02 ± 0.29 | – |
| AGUCAGCAAUAUUACGGAAG | -3.36 ± 0.17 | -1.67 ± 0.16 |
| AGUCAGCAAUAUUACGGCGA | -0.359 ± 0.091 | 0.00759 ± 0.14 |
| AGUCAGCAAUAUUACGGGCG | -0.963 ± 0.093 | 0.189 ± 0.13 |
| AGUCAGCAAUAUUACGGGGA | -3.08 ± 0.19 | -1.42 ± 0.18 |
| AGUCAGCAAUAUUACGGUGA | -1.87 ± 0.12 | -0.192 ± 0.096 |
| AGUCAGCAAUAUUACGUACA | -0.657 ± 0.074 | 0.284 ± 0.11 |
| AGUCAGCAAUAUUACGUGAC | -2.96 ± 0.24 | -2.86 ± 0.2 |
| AGUCAGCAAUAUUACGUGCA | -0.269 ± 0.073 | -0.501 ± 0.099 |
| AGUCAGCAAUAUUACGUGUA | -3.11 ± 0.14 | -0.76 ± 0.086 |
| AGUCAGCAAUAUUACGUUGG | -2.9 ± 0.17 | -1.83 ± 0.18 |
| AGUGAGCAAUAUUACGAAGU | -2.49 ± 0.26 | 0.907 ± 0.22 |
| AGUGAGCAAUAUUACGACGG | -3.25 ± 0.28 | -0.814 ± 0.22 |
| AGUGAGCAAUAUUACGAGCA | -0.561 ± 0.11 | -0.436 ± 0.11 |

| Sequence | self-splicing fitness (ln) (30 °C) | self-splicing fitness (ln) (37 °C) |
| --- | --- | --- |
| AGUGAGCAAUAUUACGAUUA | -2.67 ± 0.3 | -1.47 ± 0.37 |
| AGUGAGCAAUAUUACGCCAG | – | -2.12 ± 0.45 |
| AGUGAGCAAUAUUACGCGAG | -2.91 ± 0.49 | – |
| AGUGAGCAAUAUUACGCGCC | -2.21 ± 0.23 | – |
| AGUGAGCAAUAUUACGGAAC | -2.5 ± 0.43 | – |
| AGUGAGCAAUAUUACGGACU | -1.28 ± 0.12 | -0.761 ± 0.13 |
| AGUGAGCAAUAUUACGUAUC | -3.05 ± 0.34 | – |
| AGUGAGCAAUAUUACGUCCG | – | -0.894 ± 0.22 |
| AGUGAGCAAUAUUACGUCGG | -3.07 ± 0.31 | -1.97 ± 0.36 |
| AGUGAGCAAUAUUACGUCUU | -1.07 ± 0.082 | -1.31 ± 0.1 |
| AGUGAGCAAUAUUACGUGAG | -3.58 ± 0.31 | -0.839 ± 0.19 |
| AGUGAGCAAUAUUACGUGCU | -1.86 ± 0.28 | – |
| AGUGAGCAAUAUUACGUGGA | -2.63 ± 0.32 | -1.49 ± 0.28 |
| AGUGAGCAAUAUUACGUGUA | -3.6 ± 0.28 | -2.84 ± 0.23 |
| AGUGAGCAAUAUUACGUUAG | -2.97 ± 0.19 | -2.03 ± 0.17 |
| AGUGAGCAAUAUUACGUUCG | -3.26 ± 0.16 | -2.22 ± 0.14 |
| AGUGAGCAAUAUUACGUUUU | -3.26 ± 0.14 | -2.57 ± 0.15 |
| AGUUAGCAAUAUUACGAAGA | -1.18 ± 0.4 | -2.26 ± 0.34 |
| AGUUAGCAAUAUUACGAAUA | -1.43 ± 0.14 | -0.681 ± 0.21 |
| AGUUAGCAAUAUUACGAAUG | -2.33 ± 0.16 | -1.56 ± 0.17 |
| AGUUAGCAAUAUUACGAGAU | -2.15 ± 0.18 | -1.17 ± 0.16 |
| AGUUAGCAAUAUUACGAGCC | -1.84 ± 0.13 | -1.12 ± 0.13 |
| AGUUAGCAAUAUUACGAUGG | -2.45 ± 0.17 | -1.51 ± 0.19 |
| AGUUAGCAAUAUUACGAUUA | – | -0.435 ± 0.33 |
